Where two headings read alike, the source gives them in different places.

Assay [1] has as its target DLK1-Fc fusion protein (human). The experiment in a line: phage ELISA, DLK1 coated. (In an ELISA, binding on a coated surface is turned into a signal by an enzyme label.)
In assay [2] the target is anti-myc antibody coated on the ELISA plate. The experiment in a line: phage ELISA, anti-myc coated.
Assay [3] concerns the target Fc. Kind of assay: phage ELISA, Fc coated.
Assay [4] addresses DLK1-Fc fusion protein (human). The experiment in a line: phage ELISA; OD on DLK1 divided by OD on a-myc.
Assay [5] deals with T1, ACVR2B-Fc fusion protein (human) (UniProt Q13705).
T1 sequence: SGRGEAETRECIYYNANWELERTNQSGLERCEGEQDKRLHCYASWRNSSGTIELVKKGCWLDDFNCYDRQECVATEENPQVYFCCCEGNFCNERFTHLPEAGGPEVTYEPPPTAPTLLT
Kind of assay: SPR (ProteOn XPR36).

Assay [6] addresses T1, ACVR2B-Fc fusion protein (human). The experiment in a line: phage ELISA, ACVR2B coated.
The target is the same in assay [7]. The experiment in a line: phage ELISA; OD on ACVR2B divided by OD on a-myc.
In assay [8] the target is Fc. The experiment in a line: phage ELISA, Fc coated. The source holds these as a separate data set.
For assay [9], the target named is anti-myc antibody coated on the ELISA plate. The experiment in a line: phage ELISA, anti-myc coated. The source holds these as a separate data set.
Assay [10] has as its target T1, ACVR2B-Fc fusion protein (human). The experiment in a line: phage ELISA, ACVR2B coated. The source holds these as a separate data set.

Sequence of DLK1-Fc fusion protein (human) (chain, as listed by the source limits assumed, form in doubt): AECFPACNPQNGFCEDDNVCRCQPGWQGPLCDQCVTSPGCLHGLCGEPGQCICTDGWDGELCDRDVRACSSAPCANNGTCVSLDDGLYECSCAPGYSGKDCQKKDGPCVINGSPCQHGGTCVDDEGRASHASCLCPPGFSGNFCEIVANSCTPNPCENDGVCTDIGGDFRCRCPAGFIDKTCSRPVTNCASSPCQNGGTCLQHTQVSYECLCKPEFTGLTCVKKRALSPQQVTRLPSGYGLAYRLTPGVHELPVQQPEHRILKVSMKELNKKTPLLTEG

B1: DLK1 A05 (monoclonal scFv-phage) (scFv, V domains shown)
VH: QMQLVESGGGLVQPGRSLRLSCAASGFTFDEHAMHWVRQAPGKGLEWVSGINWNSGKTGYADSVKGRFTISRDNGKNSLYLQMNSLRAEDTAVYYCAKSGGYGGNTNWYFDLWGRGTLVTVSS
VL: QFVLTQPPSVSGAPGQNVTISCIGTSSNIGVGYDVHWYQQVPGTAPKLLVYGNNNRPSGVPDRFSGSKSGTSASLAITGLQAEDEADYYCQSYDSRLGVVFGGGTKLTVL
B1: the OD490 was 2.99 OD in [1], 0.784 OD in assay [2] and 0.0704 OD in assay [3]. In addition, the Ratio in assay [4] turned out to be 3.81.

B2: DLK1 H06 (monoclonal scFv-phage) (scFv, V domains shown)
VH: QVQLVQSGGGLIQPGGSLRLSCAASGFTFSLYGMSWVRQAPGKGLEWVSSIPGSGTRTHYADSVKGRFTISRDNSKNTLFLQMNSLRAEDTAVYYCAKSTAYLFDYWGPGTLVTVSS
VL: DIQMTQSPATLSLSPGERATLSCRASQSIRHYLAWYQQKPGQAPRLLIHGASSRATGIPDRFSGSGSGTDFTLTISRLEPEDFAVYYCQHYGSPLHSFGPGTKVEIK
On to B2, for which the results for the OD490 in [1], in assay [2] and in assay [3] were 2.13 OD, 0.863 OD and 0.0766 OD, respectively. Also, in [4], the Ratio was determined as 2.47.

B3: DLK1 B09 (monoclonal scFv-phage) (scFv, V domains shown)
VH: QMQLVESGGRLVRPGGSLRLSCAASGFPFTSYAMNWVRQTPGKGLEWVSTITATSGKTYYADSVKGRFTISRDNSRNTLFLQMNSLRAEDTAVYYCVRGESCSGGACSDFDYWGQGALVTVSS
VL: QLVLTQPASVSGSPGQSVTISCTGTSSDIGRYNRVSWYQHHPGKAPKLILNDVTTRPSGFSNRFSGSKSGNTASLTISGLQAEDEADYSCGSYAGSYTYVFGTGTKVTVL
With B3, the OD490 in assay [1] worked out at 2.33 OD; in assay [2], 0.0918 OD; in [3] it was 0.0786 OD. In addition, the Ratio in [4] was 25.3.

B4: DLK1 A10 (monoclonal scFv-phage) (scFv, V domains shown)
VH: QVQLVESGGGLVQPGRSLRLSCAASGFTFDDYAMHWVRQAPGKGLEWVSGISWNSGSIGYADSVKGRFTISRDNAKNSLYLQMNSLRAEDTAVYYCARGPGLATGKGYADYWGQGTLVTVSS
VL: DIQMTQSPSSVSASVGDRVTITCRASQRISSWLAWYQQKPGRAPKLLIHSASTLHNGVPSRFSGSASGTDFTLTISSLQPEDYAIYYCQQGHSFPYTFGQGTKLEIK
Consider B4, for which the OD490 was 2.83 OD in [1], 1.28 OD in assay [2] and 0.0828 OD in assay [3]. Also, the Ratio in assay [4] came out at 2.21.

B5: human antibody F08 (full-length IgG) (antibody, V domains shown)
VH: VQLVESGGGLVQPGGSLRLSCAASGFTFSDHYMDWVRQAPGKGLEWVGRTRNKANSYTTEYAASVKGRFTISRDDSKNSLYLQMNSLRAEDTAVYYCTKGAWLDYWGQGTLVTVSS
VL: IQMTQSPSAMSASVGDRVTITCRASQGISNYLAWFQQKPGKVPKRLIYGASSLQGGVPSRFSGSGSGTEFTLTITSLQPEDFATYFCLQHKSYPLTFGPGTKVEIK
modifications: constant regions not given
By Kd is commonly meant the equilibrium constant for the complex coming apart. A higher Kd goes with lower affinity. One may read the koff as the rate constant with which the complex falls apart. The low end stands for a long-lived complex, the high end for a short-lived complex. The kon is the second-order rate constant of association. Higher therefore signals fast association. B5: in [5], the Kd turned out to be 4.05 pM, the koff amounted to 1.32e-05 s⁻¹ and the kon is 3.25e+06 M⁻¹ s⁻¹.

B6: DLK1 H12 (monoclonal scFv-phage) (scFv, V domains shown)
VH: QVQLVQSGGGLVKPGGSLRLSCAASEFTFSDYYMSWVRQAPGKGLEWLSYISGSGITTYYADSVKGRFTISRDNGKKSLYLEMNSLRAEDTAVYYCARLQGHCSGGACSNWFDAWGQGTLITVSS
VL: DIQMTQSPSSLSASVGDRLTITCRASQSILTYLNWYQQKPGKAPKLLIYAASSLQRGVPSRFSGSGSGTDFTLTISGLQPEDFATYYCQQGYGTPYTFGQGTKVDIK
Turning to B6, the figures for the OD490 in [1], in [2] and in assay [3] were 3.2 OD, 0.674 OD and 0.0539 OD, respectively. Moreover, in [4], the Ratio was 4.75.

B7: ACVR2B A07 (monoclonal scFv-phage) (scFv, V domains shown)
VH: QLVESGGGLVRPGRSLTLSCTASGFTFNDYAMHWVRQAPGKGLEWVSGISWNTNSKAYADSVKGRFIISRDNAKNSLYLEMNSLRAEDTAVYYCVRDGGRFYYGLDVWGQGTSVTVSS
VL: DIVMTQTPVSSPVTLGQPASISCRSSQSLIHSDGNTYLSWIQQRPGQPPRLLIYKISNRFSGVPDRFSGSGAGTDFTLKISRVEAEDVGVYYCAETSQVPHTFGQGTKVEIK
modifications: scFv linker not given
With B7, the OD490 is 2.65 OD in [6]; 0.213 OD in assay [2]; 0.0443 OD in assay [3]; 0.044 OD in assay [8]; 0.213 OD in assay [9]; 2.66 OD in [10]. The Ratio in assay [7] worked out at 12.5.

B8: DLK1 A04 (monoclonal scFv-phage) (scFv, V domains shown)
VH: QVQLVESGAEVKKPGASVKVSCKASGYTFKDYAIHWVRQAPGQRLEWMGWINPGSGNTKYSHNFEGRVILTRDASANTAYLELPSLRSEDTAVYYCARSVSAYGSNYFDPWGQGTLITVSS
VL: DIQMTQSPSSLSASVGDRVTITCQASQDISNYLNWYQQKPGKAPKLLIYSTSNLQSGVPSRFSGSGSGTDFTLTISSLQPEDFATYYCQQLNSYPLTFGGGTKVDIK
Consider B8, for which the results for the OD490 in [1], in [2] and in [3] were 3.12 OD, 0.507 OD and 0.0791 OD, respectively. In addition, the Ratio in assay [4] was determined as 6.15.

The record behind these values is US20150030595A1.
